Data on 13 molecules can be found in patent US20240067729A1 (PALLEON PHARMACEUTICALS, published 2024).

Read-outs that look alike come from different tables or passages of the source.

In assay [1] the target is T1, cynomolgus PD-L1, his tagged (cPD-L1-his) (cynomolgus (Macaca fascicularis), UniProt G7PSE7 19-238).
T1 construct: also called cyPD-L1-His; Cyno PD-L1
The experiment in a line: BLI (ForteBio Octet), mouse IgG on AMC sensor, cPD-L1-his analyte, 1:1 fit. Here is the method: (§1) Screening of purified hybridoma antibodies. ForteBio octet binding of purified antibodies to recombinant hPD-L1-his and cPD-L1-his was measured. Mouse IgGs purified from hybridoma supernatant were captured on AMC (Anti-mouse IgG-Capture) Biosensor. hPD-L1-his or cPD-L1-his analytes were titrated from 100 nM in a 2× series dilution. The signal was subtracted with buffer reference and aligned to the baseline. KD, Kon and Koff values were generated using a 1:1 fitting model. […] The X-axes represent assay time in seconds, and the Y-axes represent binding signal on the biosensor. Each line represents the real time signal of antigen association and dissociation at the given antigen concentration in the assay (e.g., the top line represents the signal of the highest antigen concentration in the assay, the second top line represents the second highest concentration in the assay). The vertical dashed line represents the time point that the assay was moved from association step to the dissociation step. All the ForteBio/Octet assays were using standard/conventional settings and the graphs provided in the figures will be understood by one of skill in the art.
For orientation: In BLI a coated tip is dipped into the sample, and binding shifts an interference pattern.

Assay [2] deals with T2, human PD-L1, his tagged (hPD-L1-his) (human, UniProt Q9NZQ7 19-238, limits assumed).
T2 construct: also called huPD-L1-His; recombinant human PD-L1; not shown: his tag
T2 sequence (Q9NZQ7 19-238 limits assumed): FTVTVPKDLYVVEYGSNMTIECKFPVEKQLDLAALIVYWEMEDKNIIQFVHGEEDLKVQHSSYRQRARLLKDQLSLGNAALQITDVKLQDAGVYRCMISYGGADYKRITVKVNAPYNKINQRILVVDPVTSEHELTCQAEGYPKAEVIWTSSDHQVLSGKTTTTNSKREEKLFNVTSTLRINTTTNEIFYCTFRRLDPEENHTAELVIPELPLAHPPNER
In words: BLI (ForteBio Octet), mouse IgG on AMC sensor, hPD-L1-his analyte, 1:1 fit. As to the method: as §1

Assay [3] deals with T1, cynomolgus PD-L1, his tagged …. The experiment in a line: ELISA on cynomolgus PD-L1. (In general: An ELISA detects its analyte on a solid surface through an enzyme-linked reagent.)
The target of assay [4] is T3, human PD-L1 Fc fusion (hPD-L1-Fc) (human, UniProt Q9NZQ7 19-238, limits assumed).
T3 construct: not shown: Fc part
T3 sequence (Q9NZQ7 19-238 limits assumed): as above
In words: blocking ELISA: antibody titrated + biotin-hPD-1-Fc 1 ug/mL on coated hPD-L1-Fc. The source says:
The plate was developed with TMB and Stop buffer, the absorbance at 450 nm was read using SpectraMax plate reader. The A450 absorbance was normalized to the control that without antibody for the percentage values. The curve and IC₅₀ were generated using GraphPad Prism software.

Assay [5] deals with T2, human PD-L1, his tagged (hPD-L1-his). In words: BLI (ForteBio Octet), hPD-L1-his. As to the method:
(§2) Characterization of chimeric anti-PD-L1 antibodies. ForteBio octet binding of purified chimeric antibodies and recombinant hPD-L1-his and cPD-L1-his was measured. Chimeric human antibodies were captured on AHC (Anti-human IgG-Capture) Biosensor, hPD-L1-his or cPD-L1-his analytes were titrated from 100 nM in a 2× series dilution. The buffer reference was subtracted from the signal and aligned to the baseline. KD, Kon and Koff values were generated using 1:1 fitting model as described above. […]

Assay [6] addresses T1, cynomolgus PD-L1, his tagged …. In words: BLI (ForteBio Octet), cPD-L1-his. Here is the method:
as §2

For assay [7], the target named is T2, human PD-L1, his tagged (hPD-L1-his). In words: BLI (ForteBio Octet), hPD-L1-his. As to the method:
Characterization of chimeric anti-PD-L1 antibodies. ForteBio octet binding of purified chimeric antibodies and recombinant hPD-L1-his and cPD-L1-his was measured. Chimeric human antibodies were captured on AHC (Anti-human IgG-Capture) Biosensor, hPD-L1-his or cPD-L1-his analytes were titrated from 100 nM in a 2× series dilution. The buffer reference was subtracted from the signal and aligned to the baseline. KD, Kon and Koff values were generated using 1:1 fitting model as described above.
Selected h769 antibodies were tested in the blocking ELISA as described in Example 3 herein. […] Selected h769 humanized PD-L1 antibodies were characterized following removal of the deamidation motif in CDR-L3. FIG. 25 depicts the ForteBio octet binding of purified humanized antibodies and recombinant hPD-L1-his was measured.
The source holds these as a separate data set.

T1 sequence (G7PSE7 entry or part of it limits assumed, form in doubt): as the sequence (Q9NZQ7 19-238 limits assumed) above, with A33T, A34S, S62N, R68Q, Q82R, F173L, T185A, T192I, H215L counted along it

B1: PAL785 (hybridoma 16G1.A5) (antibody, V domains shown)
VH: EVQLQESGPELVKPGTSVKMSCKASGYTFTSYVMHWVKQRPGQGLEWIGYINPYNDGSKYNEKFKGKATLTSDTSSSTAYMELSSLTSEDSAVYYCAKQTLDFWGQGTSVTVST
VL: DIVLTQSPASLAVSLGQRATISCRASESVEFYGTTLMQWYQQKPGQPPKLLIYAASNVESGVPARFSGSGSGTDFSLNIHPVEEGDIGMYFCQQSRKVPYTFGGGTKLEIK
notes: Mouse IgG purified from hybridoma supernatant
With B1, the equilibrium dissociation constant (Kd) in assay [1] was 0.642 nM; in assay [2] it was 1.02 nM. Besides, the “ELISA cyno, Fold over Bkg” value in assay [3] worked out at 4.98 fold over background. In addition, the concentration for half-maximal inhibition (IC50) in assay [4] was 0.68 nM.

B2: PAL759 (hybridoma 13F1.B7) (antibody, V domains shown)
VH: EVQLQESGAELVRPGASVKLSCKASGYSFTDYYINWVKQRPGQGLEWIARIYPGSGNTYYNEKFKGKATLTAEKSSITAYMQLSSLTSEDSAVYFCARSYYYGSSYLFDYWGQGTTLTVSS
VL: DILLTQSPAILSVSPGERVSFSCRASQSIGTSIHWYQQRTNGSPRLLIKYASESISGIPSRFSGSGSGTDFTLSINSVESEDIGDYYCQQSNNWPFTFGSGTKLEIK
notes: as for B1
In assay [2], B2 registered a Kd of 1.14 nM. The “ELISA cyno, Fold over Bkg” value in assay [3] came out at 13.1 fold over background. The IC50 in assay [4] is 4.64 nM.

B3: h769-IF3 (humanized 769-hIgG1 variant) (antibody, V domains shown)
VH: EVQLVQSGAEVKKPGATVKISCKVSGFNIKDTYMHWVQQAPGKGLEWMGLIDPANDNTIYAEKFQGRVTITADTSTDTAYMELSSLRSEDTAVYYCAREGYGGSYGEGYWGQGTLVTVSS
VL: EIVMTQSPPTLSLSPGERVTLSCRASQSVSNDLSWYQQKPGQAPRLLIYYASIRFTGIPARFSGSGSGTDFTLTISSLQPEDFAVYYCQQDYNSPWTFGQGTKVEIK
In assay [5], B3 came in with a Kd of 2.64 nM, a koff of 0.000871 s⁻¹ and a kon of 330000 M⁻¹ s⁻¹. For the same molecule, in assay [6], binding was characterised by a dissociation constant (Kd) of 2.92 nM, the koff is 0.000602 s⁻¹ and the kon amounted to 208000 M⁻¹ s⁻¹.

B4: h769-N93 (humanized 769-hIgG1 variant keeping N93 in CDR-L3) (antibody, V domains shown)
VH: EVQLVQSGAEVKKPGATVKISCKVSGFNIKDTYMHWVQQAPGKGLEWMGLIDPANDNTIYAEKFQGRVTITADTSTDTAYMELSSLRSEDTAVYYCAREGYGGSYGEGYWGQGTLVTVSS
VL: EIVMTQSPPTLSLSPGERVTLSCRASQSVSNDLSWYQQKPGQAPRLLIYYASIRFTGIPARFSGSGSGTDFTLTISSLQPEDFAVYYCQQDYNSPWTFGQGTKVEIK
Consider B4, for which, in assay [7], the koff is 0.00058 s⁻¹ and the kon was 292000 M⁻¹ s⁻¹.

B5: h769-tm2 (humanized 769-hIgG1 variant) (antibody, V domains shown)
VH: EVQLVQSGAEVKKPGATVKISCKVSGFNIKDTYMHWVQQAPGKGLEWMGLIDPANDNTIYAEKFQGRVTITADTSTDTAYMELSSLRSEDTAVYYCAREGYGGSYGEGYWGQGTLVTVSS
VL: EIVMTQSPPTLSLSPGERVTLSCRASQSVSNDLSWYQQKPGQAPRLLIYYASIRFTGIPARFSGSGYGTDFTLTISSLQPEDFAVYYCQQDYNSPWTFGQGTKVEIK
Take B5: in assay [5], the affinity, expressed as Kd, was 2.48 nM; the koff was 0.000818 s⁻¹; the kon was found to be 331000 M⁻¹ s⁻¹. In assay [6], the equilibrium dissociation constant (Kd) is 3.01 nM, the koff was determined as 0.000593 s⁻¹ and the kon came to 204000 M⁻¹ s⁻¹.

B6: h769-tm3 (humanized 769-hIgG1 variant) (antibody, V domains shown)
VH: EVQLVQSGAEVKKPGATVKISCKVSGFNIKDTYMHWVQQAPGKGLEWMGLIDPANDNTIYAEKFQGRVTITADTSTDTAYMELSSLRSEDTAVYYCAREGYGGSYGEGYWGQGTLVTVSS
VL: EIVMTQSPPTLSLSPGERVTLSCRASQSVSNDLSWYQQKPGQAPRLLIYYASIRFTGIPARFSGSGSGTDFTLTISSLQPEDFAVYFCQQDYNSPWTFGQGTKVEIK
In assay [5], B6 yielded a Kd of 2.95 nM, a koff of 0.000904 s⁻¹ and a kon of 311000 M⁻¹ s⁻¹. In assay [6], this molecule had a Kd of 3.11 nM, a koff of 0.00065 s⁻¹ and an on-rate constant (kon) of 211000 M⁻¹ s⁻¹.

B7: h769-N93A (humanized 769-hIgG1 variant, N93A in CDR-L3) (antibody, V domains shown)
VH: EVQLVQSGAEVKKPGATVKISCKVSGFNIKDTYMHWVQQAPGKGLEWMGLIDPANDNTIYAEKFQGRVTITADTSTDTAYMELSSLRSEDTAVYYCAREGYGGSYGEGYWGQGTLVTVSS
VL: EIVMTQSPPTLSLSPGERVTLSCRASQSVSNDLSWYQQKPGQAPRLLIYYASIRFTGIPARFSGSGSGTDFTLTISSLQPEDFAVYYCQQDYASPWTFGQGTKVEIK
notes: Human IgG1
With B7, in assay [7], binding was put at a Kd of 1.46 nM, the koff came out at 0.000414 s⁻¹ and the association rate constant (kon) was found to be 284000 M⁻¹ s⁻¹.

B8: PAL769 (hybridoma 2C1.C8) (antibody, V domains shown)
VH: EVQLQESGAELVKPGASVTLSCTASGFNIKDTYMHWVKQRPEQGLEWIGRIDPANDNTKYDPKFQDKATITADTSSDTAYLRLSSLTSEDTAVYYCAREGYGGSYGEGYWGQGTTLTVSS
VL: SIVMTQTPKFLLVSAGDRVTITCKASQSVSNDVIWYQQKPGQSPKLLIYYASIRFTGVPDRFAGSGYGTDFTFTINTVQAEDLAVYFCQQDYNSPWTFGGGTKLEIK
notes: as for B1
B8: the Kd in assay [1] was found to be 1.3 nM; in assay [2], 0.758 nM. Further, in assay [3], the “ELISA cyno, Fold over Bkg” value was found to be 39.5 fold over background. For the same molecule, in assay [4], the IC50 worked out at 0.51 nM.

B9: PAL767 (hybridoma 1G7.A8) (antibody, V domains shown)
VH: EVQLQESGPSLVKPSQTLSLTCSVTGDSITSGYWNWIRKFPGNKLEYMGYISYTGSTYYNPSLKRRISITRDTSKNQYYLQLNSVTTEDTATYYCASQGGWLQAMDYWGQGTSVTVSS
VL: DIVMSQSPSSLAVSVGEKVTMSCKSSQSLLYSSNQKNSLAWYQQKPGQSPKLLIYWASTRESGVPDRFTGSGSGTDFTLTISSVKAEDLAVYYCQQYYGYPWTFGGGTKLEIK
notes: as for B1
In the case of B9, the Kd turned out to be 0.0577 nM in assay [1] and 0.803 nM in assay [2]. In addition, the “ELISA cyno, Fold over Bkg” value in assay [3] came out at 36.9 fold over background. The IC50 in assay [4] was determined as 0.81 nM.

B10: PAL752 (hybridoma 4G6.H4) (antibody, V domains shown)
VH: EVQLQESGAELARPGASVKLSCKASGHAFTSDSINWVKQRIGQGLEWIGEIYPRSGNPYYNEKFKGKATLTADKSSSTAYMELRSLTSEDSAVYFCATDYYGRYFDVWGTGTTVTVSS
VL: DIQMTQSSFSFSVSLGDRVTIICKASEDIYNRLAWYQQKPGNTPRLLISGATSLETGVPSRFSGSGSGKDYTLSITSLQTEDVATYYCQQYWSTPWTFGGGTKLEIK
notes: as for B1
Consider B10, for which the equilibrium dissociation constant (Kd) in assay [1] came to 4.03 nM; in assay [2], 0.789 nM. The “ELISA cyno, Fold over Bkg” value in assay [3] worked out at 18.4 fold over background. The half-maximal inhibitory concentration (IC50) in assay [4] stood at 2.53 nM.

B11: PAL787(3D10) (hybridoma CKH-3D10) (antibody, V domains shown)
VH: QVTLKESGPGILQPSQTLSLTCSFSGFSLSTYGLGVGWIRQPSGKGLEWLANIWWNDDKFYDSVLKSRLTISKDTSNNQVFLKISSVDTSETATYYCAQTLHYYDGIAWFAYWGQGTLVTVSA
VL: DIVMTQSQNFMSTSVGDRVSVTCKASHYVGTFVAWYQQKPGQSPKALIFSTSYRHTGVPDRFTGSGSGTDFTLTISNVQSEDLADYFCQQYYNSPLTFGAGTKLELK
notes: as for B1
For the molecule B11, the Kd in assay [1] came out at 0.283 nM; in assay [2] it was 0.277 nM. The “ELISA cyno, Fold over Bkg” value in assay [3] worked out at 38.2 fold over background. In assay [4], the IC50 amounted to 4.07 nM.

B12: PAL771 (hybridoma 2D10.E2.B9) (antibody, V domains shown)
VH: EVQLQESGAELVKPGASVKLSCTASGFNIKDTYMHWVKQRPEQGLEWIGRIDPANGNTKYDPKFPGKATITADTSSNTAYLQLSSLTSEDAAVYYCARPFNYRFYDVYYFDYWGQGTTLTVST
VL: QIVLTQSPAIMSASPGEKVTMTCSASSSVSYMYWYQQKPGSSPRLLIYDTSNLASGVPLRFSGSGSGTSYSLTLSRMEAEDAATYYCQQWSTYPLTFGAGTKLELK
notes: as for B1
Consider B12, for which the Kd turned out to be 1.15 nM in assay [1] and 0.592 nM in assay [2].

B13: PAL771.2 (hybridoma 2D10.E2.H4) (antibody, V domains shown)
VH: EVQLQESGAELVKPGASVKLSCTASGFNIKDTYMHWVKQRPEQGLEWIGRIDPANGNTKYDPKFPGKATITADTSSNTAYLQLSSLTSEDAAVYYCARPFNYRFYDVYYFDYWGQGTTLTVST
VL: QIVLTQSPAIMSASPGEKVTMTCSASSSVSYMYWYQQKPGSSPRLLIYDTSNLASGVPLRFSGSGSGTSYSLTLSRMEAEDAATYYCQQWSTYPLTFGAGTKLELK
On to B13, for which, in assay [1], binding was put at a Kd of 2.27 nM.

One may read the Kd as the free concentration of one partner at which half of the binding sites on the other are occupied at equilibrium, for simple one-to-one binding. As usually defined, the IC50 is the concentration that gives 50% inhibition. As usually defined, the koff is the first-order rate constant of dissociation. Usually kon stands for a measure of how fast the partners come together.
